Measurements from the RNAGym collection of RNA variant scans (doi:10.7554/elife.80360).

B1: CPEB3 Ribozyme (parent)
chain: GGGGGCCACAGCAGAAGCGUUCACGUCGCGGCCCCUGUCAGAUUCUGGUGAAUCUGCGAAUUCUGCUGU

Variants of: B1
Experiment: self-cleavage, relative activity (ratio to wild type); higher = more cleavage; co-transcriptional

Row | Variant | self-cleavage
1 | G2C C22G | 0.02
2 | G2C U21C | 0.0403
3 | G2U C27A | 0.0514
4 | G2U A51C | 0.102
5 | G2C C34G | 0.0583
6 | G2U A40G | 0.0279
7 | G2C U20G | 0.0688
8 | G2C C24U | 0.0323
9 | G2U U69A | 0.124
10 | G2U U69C | 0.208
11 | G2A C39G | 0.0948
12 | G2A U53A | 0.111
13 | G2A U53C | 0.104
14 | G2A G4U | 0.0384
15 | G2A G4A | 0.0501
16 | G2A G4C | 0.0317
17 | G2C G65U | 0.102
18 | G2C G65A | 0.0284
19 | G2A G31U | 0.0712
20 | G2A G31C | 0.0358
21 | G2U G37C | 0.0385
22 | G2C U44A | 0.0552
23 | G2C U44G | 0.06
24 | G2A C63A | 0.104

Row | Variant | self-cleavage
25 | G2U A52G | 0.0867
26 | G2U A52U | 0.0917
27 | G2C G47A | 0.0652
28 | G2C G47U | 0.0378
29 | G2U G50A | 0.0766
30 | G2A G19C | 0.0616
31 | G2U G5A | 0.0678
32 | G2U G5C | 0.0693
33 | G2C G5U | 0.0585
34 | G2C G5C | 0.0267
35 | G2U C9U | 0.176
36 | G2U U36G | 0.0492
37 | G3A A16G | 0.315
38 | G2A C54G | 0.0929
39 | G2U A23G | 0.0867
40 | G3A A13C | 0.298
41 | G2C U55A | 0.0429
42 | G2U G31A | 0.0769
43 | G2U C29U | 0.0589
44 | G2C A23G | 0.0311
45 | G2C A23U | 0.1
46 | G2U G17C | 0.0396
47 | G2U G17U | 0.039
48 | G2A G5U | 0.0444

Row | Variant | self-cleavage
49 | G2C C63A | 0.0459
50 | G2C C63U | 0.0396
51 | G2U U64C | 0.0967
52 | G2U U64G | 0.0605
53 | G2U G28U | 0.0242
54 | G2C G50A | 0.0951
55 | G2C G48A | 0.0788
56 | G2A C45U | 0.117
57 | G2A C45A | 0.132
58 | G2C U43G | 0.0524
59 | G2U U61A | 0.0837
60 | G2U U61G | 0.112
61 | G2C G41A | 0.0552
62 | G2U U20A | 0.0261
63 | G2C A13C | 0.0327
64 | G2C C27U | 0.0172
65 | G2U G65A | 0.0788
66 | G2C G19A | 0.0455
67 | G2C G58A | 0.0591
68 | G2C C29A | 0.0311
69 | G2A U44A | 0.111
70 | G2A U44G | 0.0958
71 | G2U G47A | 0.0706
72 | G2U G3U | 0.0485

Row | Variant | self-cleavage
73 | G2C A59G | 0.106
74 | G2U U38C | 0.095
75 | G2U U38A | 0.0631
76 | G2U A16G | 0.0825
77 | G2U A16C | 0.0327
78 | G2A U61A | 0.0537
79 | G2A U61G | 0.0696
80 | G2C U36A | 0.0481
81 | G2C U36G | 0.052
82 | G2A C34G | 0.03
83 | G2A G47U | 0.276
84 | G2U G48C | 0.0769
85 | G2A G68U | 0.335
86 | G2C U69G | 0.0519
87 | G2U U26C | 0.077
88 | G2U U26A | 0.0542
89 | G2U G14A | 0.0496
90 | G2U C57U | 0.0179
91 | G2U C35U | 0.0749
92 | G2U C35G | 0.109
93 | G3A A8C | 0.721
94 | G3A A8G | 0.527
95 | G2A U38G | 0.0237
96 | G2U C54A | 0.0587

Row | Variant | self-cleavage
97 | G2C C7G | 0.0326
98 | G2U U21C | 0.0789
99 | G2U U49C | 0.0667
100 | G2U U49G | 0.0431
101 | G2U U49A | 0.0944
102 | G2A G65A | 0.163
103 | G3A A23U | 0.79
104 | G2U C66U | 0.096
105 | G2U C66A | 0.073
106 | G2U G11C | 0.0923
107 | G2C C54G | 0.0261
108 | G2C G3U | 0.0339
109 | G2A G41C | 0.0676
110 | G2C G17U | 0.0711
111 | G2C G68U | 0.0864
112 | G2U U46G | 0.0727
113 | G2U C18A | 0.0495
114 | G2U C18U | 0.0941
115 | G2U C34U | 0.103
116 | G2C U53A | 0.0158
117 | G2C U53C | 0.0834
118 | G2C U62C | 0.011
119 | G2U A10U | 0.138
120 | G2U A10G | 0.116

Row | Variant | self-cleavage
121 | G2U G41C | 0.0505
122 | G2U G41U | 0.0665
123 | G2A U49A | 0.179
124 | G2U U55G | 0.0565
125 | G2U U55C | 0.0989
126 | G2U G4A | 0.0959
127 | G2U A59G | 0.0714
128 | G2C A8G | 0.0226
129 | G2A G17C | 0.0329
130 | G2A C32G | 0.0194
131 | G2A C32A | 0.0579
132 | G2U C63A | 0.127
133 | G2U C63G | 0.102
134 | G2U C63U | 0.117
135 | G2U G30A | 0.0872
136 | G2U G30C | 0.0703
137 | G2A U69C | 0.457
138 | G2A U20C | 0.0328
139 | G2A U20A | 0.0398
140 | G2U C32A | 0.107
141 | G2A C24U | 0.0737
142 | G2C A42C | 0.0895
143 | G2C A42U | 0.0317
144 | G2A G28C | 0.0268

Row | Variant | self-cleavage
145 | G2C G30C | 0.072
146 | G2U A60G | 0.0636
147 | G2C G14U | 0.0531
148 | G2U A13G | 0.0748
149 | G2U A15G | 0.0981
150 | G2C G37C | 0.0304
151 | G2C C35U | 0.0408
152 | G2C C18G | 0.0398
153 | G2C C9U | 0.0977
154 | G2C A51U | 0.056
155 | G2A C33G | 0.0627
156 | G2C U38A | 0.0483
157 | G2A G25A | 0.0813
158 | G2C C39A | 0.108
159 | G2C C39G | 0.0347
160 | G2C A52U | 0.0375
161 | G2C A52G | 0.0291
162 | G2C C66G | 0.0186
163 | G3A A40C | 0.166
164 | G2U U62C | 0.108
165 | G2U U62A | 0.0777
166 | G2C G25A | 0.0488
167 | G2C C12A | 0.0486
